Reference: PMC2374443

Biological target: integrin-associated protein (CD47/IAP) (human (endogenous in primary articular chondrocytes))
Sequence (Q08722 19-323): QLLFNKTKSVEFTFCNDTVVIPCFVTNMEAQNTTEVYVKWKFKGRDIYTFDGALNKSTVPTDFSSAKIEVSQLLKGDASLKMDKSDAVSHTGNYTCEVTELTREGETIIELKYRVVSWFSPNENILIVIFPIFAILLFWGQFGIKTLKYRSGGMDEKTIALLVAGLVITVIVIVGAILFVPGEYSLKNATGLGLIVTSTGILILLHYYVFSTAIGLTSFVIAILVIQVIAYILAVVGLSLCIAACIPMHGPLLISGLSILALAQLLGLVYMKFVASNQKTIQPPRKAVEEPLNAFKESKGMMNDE

percentage change of membrane potential of normal chondrocytes after 20 min of 0.33 Hz mechanical stimulation in the presence of anti-CD47/IAP antibody Bric 126 (without antibody +21): 2%
percentage change of membrane potential of osteoarthritic chondrocytes after 20 min of 0.33 Hz mechanical stimulation in the presence of anti-CD47/IAP antibody Bric 126 (without antibody -42): -2%
percentage change of membrane potential of osteoarthritic chondrocytes after 20 min of 0.33 Hz mechanical stimulation in the presence of anti-TSP-1 antibody (without antibody -42): 3%
Substance: thrombospondin-1 (TSP-1) (from UniProt P07996 19-1170) (natural protein)
